This is an account of results in patent US20120329854A1 (UNIVERSIT TSKLINIKUM FREIBURG, published 2012).

Experiment [1] addresses Protein-kinase-C-related kinase 1 (PRK1), endogenous in LNCaP cells (human, UniProt Q16512 2-942). Description: Re-ChIP in LNCaP cells, first α-PKCβI then α-PRK1. How it is done:
(§1) ChIP and Re-ChIP experiments were performed as described³. LNCaP cells were cultured for 15 min (ChIP) or 210 min (Re-ChIP) in the presence or absence of 1×10⁻⁸M R1881 as indicated. Three days before harvesting, cells were transfected with siRNA (control for PKCβI: 5′-[…]-3′(SEQ ID NO 3); PKCβI: 5′-[…]-3′ (SEQ ID NO 4) (FIG. 3 b, c, f-i); control for PRK1: 5′-[…]-3′ (SEQ ID NO 14); PRK1: 5′-[…]-3′ (SEQ ID NO: 15) (FIG. 3 d, e); Invitrogen) using RNAifect (Qiagen) following the manufacturer's instructions. Immunoprecipitation was performed with specific antibodies (α-AR #06-680 lot 33529 (Upstate Biotechnology), α-H3K4me1 #ab8895 lot 535654, α-H3T6ph #ab14102 lot 481643, α-H3 #ab1791 lot 172452, α-PKCβI S660ph #ab23513 lot 596904 (Abcam), α-PKCβI (C-16) #sc-209 lot 481643, (Santa Cruz), α-H3K4me2 #cs-035-100 lot A391001 (Diagenode), α-PRK1³, and α-LSD1²) on protein A-Sepharose 4B (GE-Healthcare). For PCR, 2 μl out of 50 μl DNA extract was used. PCR primers for FKBP5 (+351/+443), KLK2 (−343/−90), SCN1A, SCN2A, GAPDH, and U6 were described previously^{1, 2, 6, 11}.
It was recently shown by the inventors that PRK1 is a gatekeeper for regulation of AR target gene expression³. PRK1 controls multiple processes during AR-dependent transcription, such as transition from the RNA polymerase II pre-initiation to the initiation complex and demethylation at lysine 9 of histone H3 (H3K9)³. […]

Experiment [2] concerns the target LSD1, endogenous in LNCaP cells (human, UniProt O60341 1-852). Put plainly: Re-ChIP in LNCaP cells, first α-PKCβI then α-LSD1, KLK2 and FKBP5 promoters. The procedure:
as §1
Therefore, it was investigated whether PKCβI is present at AR target genes and phosphorylates H3T6 in vivo. To analyse first whether PKCβI binds to promoters of AR target genes, LNCaP cells were subjected to chromatin immunoprecipitation (ChIP) in the presence or absence of the AR agonist R1881. […]

Sequence of Protein-kinase-C-related kinase 1 (PRK1), endogenous in LNCaP cells (Q16512 2-942 limits assumed): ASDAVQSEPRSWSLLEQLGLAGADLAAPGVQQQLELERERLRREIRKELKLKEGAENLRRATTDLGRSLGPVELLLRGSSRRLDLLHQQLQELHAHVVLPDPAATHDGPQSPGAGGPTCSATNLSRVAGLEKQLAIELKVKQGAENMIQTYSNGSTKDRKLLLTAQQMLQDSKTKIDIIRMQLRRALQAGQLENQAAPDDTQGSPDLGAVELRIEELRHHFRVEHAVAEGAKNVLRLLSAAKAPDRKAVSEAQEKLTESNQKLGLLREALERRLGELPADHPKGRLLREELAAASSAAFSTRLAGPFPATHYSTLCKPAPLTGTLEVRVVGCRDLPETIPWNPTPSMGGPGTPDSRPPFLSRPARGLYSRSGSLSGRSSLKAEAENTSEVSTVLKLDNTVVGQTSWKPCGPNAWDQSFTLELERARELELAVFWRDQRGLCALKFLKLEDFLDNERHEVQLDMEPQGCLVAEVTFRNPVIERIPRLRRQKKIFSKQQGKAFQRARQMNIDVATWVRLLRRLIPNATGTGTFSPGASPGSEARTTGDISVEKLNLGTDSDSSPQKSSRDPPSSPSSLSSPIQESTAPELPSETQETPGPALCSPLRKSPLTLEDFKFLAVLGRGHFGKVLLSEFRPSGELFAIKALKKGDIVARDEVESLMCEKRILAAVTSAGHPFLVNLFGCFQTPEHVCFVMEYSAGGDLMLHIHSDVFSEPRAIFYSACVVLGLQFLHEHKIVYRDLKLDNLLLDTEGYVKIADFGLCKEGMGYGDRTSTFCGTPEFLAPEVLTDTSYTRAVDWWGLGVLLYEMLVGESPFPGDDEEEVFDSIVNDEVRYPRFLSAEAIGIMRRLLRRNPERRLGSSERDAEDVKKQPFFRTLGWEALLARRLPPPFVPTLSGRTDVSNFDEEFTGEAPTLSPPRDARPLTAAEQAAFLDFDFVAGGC

B1: protein kinase C beta 1 (PKCβI), endogenous in LNCaP cells (enzyme)
chain: not shown
notes: here the endogenous protein on chromatin of LNCaP human prostate cancer cells; also called protein kinase C βI; PKCβ1
For B1, the binding result in experiment [1] and in experiment [2] was “binds” in each case.
